Fold-increase in PGRN level in brain of sortilin -/- mice and fold-increase in PGRN level in serum of sortilin -/- mice (immunoblot) data for 1 substance are collected here from US20120039865A1, “IDENTIFICATION OF SORTILIN AS A NEURONAL RECEPTOR FOR THE FRONTOTEMPORAL DEMENTIA PROTEIN, PROGRANULIN” (Yale University, priority 2008, published 2012).

The target in this assay is endogenous mouse sortilin (Sort1) of mouse brain lysate, mouse cortical neurons and mice in vivo (mouse) (UniProt Q6PHU5). Nature of the assay: cell-based or functional assay.
endogenous mouse sortilin (Sort1) of mouse brain lysate, mouse cortical neurons and mice in vivo (mouse), sequence (Q6PHU5 74-825 limits assumed): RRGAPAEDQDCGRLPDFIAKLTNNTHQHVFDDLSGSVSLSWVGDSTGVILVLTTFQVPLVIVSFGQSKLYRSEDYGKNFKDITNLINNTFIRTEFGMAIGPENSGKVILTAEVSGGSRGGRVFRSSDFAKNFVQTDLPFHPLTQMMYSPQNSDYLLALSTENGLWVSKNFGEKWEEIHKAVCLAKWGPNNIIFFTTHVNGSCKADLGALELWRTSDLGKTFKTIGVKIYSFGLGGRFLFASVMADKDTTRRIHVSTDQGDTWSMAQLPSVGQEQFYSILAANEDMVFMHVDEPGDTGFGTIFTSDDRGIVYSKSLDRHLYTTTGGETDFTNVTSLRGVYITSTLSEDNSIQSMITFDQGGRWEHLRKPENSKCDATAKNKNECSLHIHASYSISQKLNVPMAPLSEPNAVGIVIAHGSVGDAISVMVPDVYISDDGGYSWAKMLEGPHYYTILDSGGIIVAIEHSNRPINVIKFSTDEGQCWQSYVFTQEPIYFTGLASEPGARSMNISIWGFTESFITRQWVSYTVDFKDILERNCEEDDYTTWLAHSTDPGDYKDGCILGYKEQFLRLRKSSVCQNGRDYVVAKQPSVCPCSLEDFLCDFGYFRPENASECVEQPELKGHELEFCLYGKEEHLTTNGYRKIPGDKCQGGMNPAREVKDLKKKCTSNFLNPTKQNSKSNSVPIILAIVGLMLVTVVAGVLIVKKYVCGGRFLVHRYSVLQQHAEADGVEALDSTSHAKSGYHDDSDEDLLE

Take “endogenous mouse PGRN (serum and brain of mice) (from UniProt P28798 18-589) (ligand)”: the fold-increase in PGRN level in brain of sortilin -/- mice was found to be 3 fold and the fold-increase in PGRN level in serum of sortilin -/- mice (immunoblot) was 4 fold.
